Results as given in patent US20230038638A1, “COMPLEMENT FACTOR I-RELATED COMPOSITIONS AND METHODS” (published 2023).

Experiments:
[1] = biological target: T1, human C4b (human) (UniProt P0C0L5)
T1 sequence: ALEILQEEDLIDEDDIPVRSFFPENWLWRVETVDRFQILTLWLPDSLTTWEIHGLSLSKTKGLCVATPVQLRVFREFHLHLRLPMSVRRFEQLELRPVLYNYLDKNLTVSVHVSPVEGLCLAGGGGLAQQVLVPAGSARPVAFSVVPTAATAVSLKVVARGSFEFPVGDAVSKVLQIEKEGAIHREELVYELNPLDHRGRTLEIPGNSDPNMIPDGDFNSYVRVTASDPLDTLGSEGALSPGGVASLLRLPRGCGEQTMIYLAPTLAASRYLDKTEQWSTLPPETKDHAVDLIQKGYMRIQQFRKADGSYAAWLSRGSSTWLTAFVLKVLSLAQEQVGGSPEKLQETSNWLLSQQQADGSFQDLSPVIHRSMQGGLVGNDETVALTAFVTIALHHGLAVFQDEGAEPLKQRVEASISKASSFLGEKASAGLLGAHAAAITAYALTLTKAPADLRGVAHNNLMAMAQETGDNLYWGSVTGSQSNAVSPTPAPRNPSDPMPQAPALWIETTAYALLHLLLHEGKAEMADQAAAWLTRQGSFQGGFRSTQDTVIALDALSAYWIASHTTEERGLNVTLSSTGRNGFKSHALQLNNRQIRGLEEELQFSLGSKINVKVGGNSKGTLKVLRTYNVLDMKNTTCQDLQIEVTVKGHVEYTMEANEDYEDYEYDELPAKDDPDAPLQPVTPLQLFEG

[2] = biological target: soluble human C3b (human) (UniProt P01024)

| Substance | C4b Screen Ref Fold (fold vs CFI-HSA wild type) [1] | iC3b Screen Ref Fold (fold vs CFI-HSA wild type) [2] |
| --- | --- | --- |
| (HSA-GS)-V311-V565 - G(10) - K1-G310; C309S; C435S (enzyme) | 0.21 | 0.03 |
| (HSA-GS)-V311-V565 - G(13) - K1-G310 (enzyme) | 0.34 | 0.03 |
| (HSA-GS)-V311-V565 - G(13) - K1-G310; C309S; C435S (enzyme) | 0.06 | 0.03 |
| CFI-HSA A342G (enzyme) | 0.91 | 1.23 |
| CFI-HSA A366G (enzyme) | 0.74 | 1.46 |
| CFI-HSA A405G (enzyme) | 1.06 | 1.74 |
| CFI-HSA A502G (enzyme) | 0.06 | 0.09 |
| CFI-HSA D425R; Y408L; N531G; E457G; E461Q; R462K; F464Y; E530Y (enzyme) | 4.98 | 1.57 |
| CFI-HSA D459G (enzyme) | 1.07 | 1.93 |
| CFI-HSA D501G (enzyme) | -0.01 | -0.04 |
| CFI-HSA D549A (enzyme) | 1.04 | 0.66 |
| CFI-HSA D549F (enzyme) | 0.05 | 0.22 |
| CFI-HSA D549G (enzyme) | 0.75 | 0.86 |
| CFI-HSA D549H (enzyme) | 0.92 | 0.73 |
| CFI-HSA D549K (enzyme) | 1 | 0.18 |
| CFI-HSA D549L (enzyme) | 0.1 | 0.2 |
| CFI-HSA D549M (enzyme) | 0.23 | 0.45 |
| CFI-HSA D549N (enzyme) | 1.08 | 1.48 |

| Substance | C4b Screen Ref Fold (fold vs CFI-HSA wild type) [1] | iC3b Screen Ref Fold (fold vs CFI-HSA wild type) [2] |
| --- | --- | --- |
| CFI-HSA D549P (enzyme) | 1.08 | 0.53 |
| CFI-HSA D549Q (enzyme) | 1.1 | 0.84 |
| CFI-HSA D549R (enzyme) | 0.52 | 0.27 |
| CFI-HSA D549T (enzyme) | 1.05 | 1.09 |
| CFI-HSA D549V (enzyme) | 0.07 | 0.46 |
| CFI-HSA D549W (enzyme) | 0.25 | 0.68 |
| CFI-HSA D549Y (enzyme) | 0.08 | 0.42 |
| CFI-HSA E401G (enzyme) | 0.82 | 2.1 |
| CFI-HSA E457G; D425R; E530Y (enzyme) | 4.29 | 1.73 |
| CFI-HSA E457G; E461Q; F464Y; N531G; GGSSGG (SEQ ID NO: 6); CR1 (ccp15-17) (from UniProt P17927) (enzyme) | 4.44 | 0.13 |
| CFI-HSA E457G; E461Q; N531G; GGSSGG (SEQ ID NO: 6); CR1 (ccp15-17) (from UniProt P17927) (enzyme) | 4.82 | 0.12 |
| CFI-HSA E457G; E461Q; R557A (enzyme) | 4.5 | 1.29 |
| CFI-HSA E457G; E461Q; R557K (enzyme) | 4.28 | 1.81 |
| CFI-HSA E457G; E530Y (enzyme) | 2.48 | 2.03 |
| CFI-HSA E457G; N531G; D425R; E530Y (enzyme) | 5.37 | 0.78 |
| CFI-HSA E457G; N531G; E461Q; R462K; F464Y; E530Y (enzyme) | 5.7 | 1.83 |
| CFI-HSA E457G; N531G; E461Q; R462K; F464Y; E530Y; GGSSGG (SEQ ID NO: 6); CR1(ccp15-17) (from UniProt P17927) (enzyme) | 2.87 | 0.01 |
